Laboratory results published in paper PMC2851401 (Journal of molecular biology, 2010).

B1: chimeric rabbit/human Fab SJS-R1 as the selected phage display clone in pC3C (Fab, V domains shown)
VH: QEQLVESGGRLVTPGTALTLTCKVSGFSLSGFWLNWVRQAPGKGLEWVGAIYRGSGSEWYASWAKGRFTISDTSTTVTLKLTSPTTEDTATYFCAADTTDNGYFTIWGPGTLVTVSS
VL: ELVMTQTPSSVSEPVGGTVTIKCQASQSISSWLSWYQQKPGQPPKLLIYDASNLASGVPSRFMGSGSGTEYTLTISGVQREDAATYYCLGGYPAASYRTAFGGGTELEII

Columns and labels:
[1] = target: Rev (Human immunodeficiency virus 1) (UniProt P04325); conditions: cited from earlier work
[2] = target: biotinylated HIV-1 Rev with C-terminal Avitag (HIV-1, UniProt P04616); assay: ELISA
Sequence of biotinylated HIV-1 Rev with C-terminal Avitag (P04616 whole entry): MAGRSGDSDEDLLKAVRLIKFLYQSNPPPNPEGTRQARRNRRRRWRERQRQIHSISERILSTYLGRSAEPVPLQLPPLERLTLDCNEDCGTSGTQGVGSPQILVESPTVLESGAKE

| Molecule | Kd [1] | binding result [2] |
| --- | --- | --- |
| Rev (from UniProt P04325) | 1 µM | – |
| B1 | – | binds |
